{"source": "patent US20020052476A1", "about": "(Human Genome Sciences, published 2002)", "binders": {"B1": {"name": "papain (EC 3.4.22.2; from Sigma) (protein)", "chain": "IPEYVDWRQKGAVTPVKNQGSCGSCWAFSAVVTIEGIIKIRTGNLNEYSEQELLDCDRRSYGCNGGYPWSALQLVAQYGIHYRNTYPYEGVQRYCRSREKGPYAAKTDGVRQVQPYNEGALLYSIANQPVSVVLEAAGKDFQLYRGGIFVGPCGNKVDHAVAAVGYGPNYILIKNSWGTGWGENGYIRIKRGTGNSYGVCGLYTSSFYPVKN"}, "B2": {"name": "recombinant human cystatin E (mature CysE secreted from baculovirus-infected Sf9 cells) (other)", "chain": "RPQERMVGELRDLSPDDPQVQKAAQAAVASYNMGSNSIYYFRDTHIIKAQSQLVAGIKYFLTMEMGSTDCRKTRVTGDHVDLTTCPLAAGAQQEKLRCDFEVLVVPWQNSSQLLKHNCVQM", "modifications": "partly N-glycosylated (protein band doublet, a glycosylated and an unglycosylated form)", "notes": "Full-length cDNA was expressed in Sf9 cells; also called recombinant CysE"}}, "key": {"[1]": {"target": "T1, m-CysE (mutant CysE: amino acids 29-143 of SEQ ID NO: 2 plus a 27 amino acid C-terminal fusion product encoded by the pA2 vector)", "T1 chain": "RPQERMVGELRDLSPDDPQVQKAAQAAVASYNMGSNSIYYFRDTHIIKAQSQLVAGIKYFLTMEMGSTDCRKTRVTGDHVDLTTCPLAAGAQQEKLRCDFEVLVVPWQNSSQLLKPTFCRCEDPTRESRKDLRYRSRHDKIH"}, "[2]": {"target": "T2, recombinant human cystatin E (mature CysE secreted from baculovirus-infected Sf9 cells)", "T2 chain": "B2 chain"}, "[3]": {"target": "T3, papain (EC 3.4.22.2; from Sigma) (UniProt P00784 134-345)", "T3 construct": "Commercial enzyme", "T3 sequence (looked up)": "B1 chain", "assay": "titration of papain activity (Bz-Arg-pNA hydrolysis) with varying inhibitor concentrations; linear titration curves", "description": "To test the function of CysE and m-CysE as protease inhibitors their effect on papain hydrolysis of casein was investigated according to the method of Example 10. […] The m-CysE mutant performed similarly (data not shown).\nThe methods used for active site titration of papain, titration of the molar enzyme inhibitory concentration in cystatin E preparations, and for determination of equilibrium constants for dissociation (Ki) of complexes between cystatin E and cysteine peptidases are described in detail in Hall et al., Biochem. J., 291:123-29 (1993) and Abrahamson, Methods Enzymol., 244:685-700 (1994), both of which are hereby incorporated herein by reference. The enzymes used for equilibrium assays were papain (EC 3.4.22.2; from Sigma, St Louis, Mo.) and cathepsin B (EC 3.4.22.1; from Calbiochem, La Jolla, Calif.). […] Steady state velocities were measured and Ki values were calculated according to Henderson, Biochem J., 127:321-333 (1972), incorporated herein by reference. Corrections for substrate competition were made using Km values of 150=B5M for cathepsins B (Barrett and Kirschke, Methods Enzymol., 80:535-561 (1981) and 60=B5M for papain (Hall et al., Biochem. J., 291:123-29 (1992)), both of which are hereby incorporated herein by reference."}}, "data": [{"binder": "B1", "values": [{"measurement": "papain hydrolysis of casein", "setting": "[1]", "result": "Both CysE and m-CysE showed a dose- and time-dependent inhibition of papain activity (data not shown)"}, {"measurement": "papain hydrolysis of Bz-Arg-pNA in 10 minute assays", "setting": "[2]", "result": "At mM concentrations, the recombinant CysE completely inhibited papain hydrolysis of Bz-Arg-pNA in 10 minute assays"}, {"measurement": "papain hydrolysis of casein", "setting": "[2]", "result": "Both CysE and m-CysE showed a dose- and time-dependent inhibition of papain activity (data not shown)"}]}, {"binder": "B2", "values": [{"measurement": "Ki", "setting": "[3]", "result": "< 10", "unit": "nM"}]}]}
